Measurements as given in patent US20260002156.

T1: fluorogenic peptide substrate to ADAM10 (Mca-PLAQAV-Dpa-RSSR)
T1 chain: PLAQAVXRSSR


Target: T1, fluorogenic peptide substrate to ADAM10 …

| Protein | fluorescence intensity (fluorogenic peptide cleavage assay) |
| --- | --- |
| ADAM10 on the surface of HCC cells (HepG2) (protein) TTSAEKNTCQLYIQTDHLFFKYYGTREAVIAQISSHVKAIDTIYQTTDFSGIRNISFMVKRIRINTTADEKDPTNPFRFPNIGVEKFLELNSEQNHDDYCLAYVFTDRDFDDGVLGLAWVGAPSGSSGGICEKSKLYSDGKKKSLNTGIITVQNYGSHVPPKVSHITFAHEVGHNFGSPHDSGTECTPGESKNLGQKENGNYIMYARATSGDKLNNNKFSLCSIRNISQVLEKKRNNCFVESGQPICGNGMVEQGEECDCGYSDQCKDECCFDANQPEGRKCKLKPGKQCSPSQGPCCTAQCAFKSKSEKCRDDSDCAREGICNGFTALCPASDPKPNFTDCNRHTQVCINGQCAGSICEKYGLEECTCASSDGKDDKELCHVCCMKKMDPSTCASTGSVQWSRHFSGRTITLQPGSPCNDFRGYCDVFMRCRLVDADGPLARLKKAIFSPELYENIAEWIVAHWWAVLLMGIALIMLMAGFIKICSVHTPSSNPKLPPPKPLPGTLKRRRPPQPIQQPQRQRPRESYQMGHMRR | after incubation with HCC cells, the fluorogenic peptide significantly increased the fluorescence intensity, stronger than the recombinant human ADAM10 (rhADAM10) which serves as a positive control |
| recombinant human ADAM10 (rhADAM10) (protein) TTSAEKNTCQLYIQTDHLFFKYYGTREAVIAQISSHVKAIDTIYQTTDFSGIRNISFMVKRIRINTTADEKDPTNPFRFPNIGVEKFLELNSEQNHDDYCLAYVFTDRDFDDGVLGLAWVGAPSGSSGGICEKSKLYSDGKKKSLNTGIITVQNYGSHVPPKVSHITFAHEVGHNFGSPHDSGTECTPGESKNLGQKENGNYIMYARATSGDKLNNNKFSLCSIRNISQVLEKKRNNCFVESGQPICGNGMVEQGEECDCGYSDQCKDECCFDANQPEGRKCKLKPGKQCSPSQGPCCTAQCAFKSKSEKCRDDSDCAREGICNGFTALCPASDPKPNFTDCNRHTQVCINGQCAGSICEKYGLEECTCASSDGKDDKELCHVCCMKKMDPSTCASTGSVQWSRHFSGRTITLQPGSPCNDFRGYCDVFMRCRLVDADGPLARLKKAIFSPELYENIAE | the recombinant human ADAM10 (rhADAM10) which serves as a positive control |
